Test results published in article PMC8271027.
One block for each substance: values may come before it.

Experiments:
[1] = target: A*03:01/photoKK9 (human)
[2] = target: B*27:05/photoRL9 (human)
[3] = target: B*27:09/photoRL9 (human)
[4] = target: A*03:01/photoKK9 (human); remark: listed apart in the source
[5] = target: A*02:01/photoKV9 (human)
[6] = target: A*03:01/photoKK9 (human); remark: listed apart in the source
[7] = target: B*27:05/photoRL9 (human); remark: listed apart in the source
[8] = target: B*27:09/photoRL9 (human); remark: listed apart in the source
[9] = target: A*02:01/photoKV9 (human); remark: listed apart in the source
[10] = target: A*03:01/photoKK9 (human); remark: listed apart in the source
[11] = target: B*27:05/photoRL9 (human); remark: listed apart in the source
[12] = target: B*27:09/photoRL9 (human); remark: listed apart in the source
[13] = target: A*03:01/photoKK9 (human); remark: listed apart in the source
[14] = target: B*27:09/photoRL9 (human); remark: listed apart in the source

Substance: ERp57-Tapasin conjugate (wild-type) (from UniProt O15533 21-398; P30101 25-504) (complex)
fold increase of the peptide exchange rate (observed Kon of FITC-GV9, fluorescence polarisation) of 500 nM UV-exposed A*02:01/photoKV9 with equimolar ERp57-Tsn^WT against none [5]: 1.31 fold
fold increase of the peptide exchange rate (observed Kon of FITC-KK9, fluorescence polarisation) of 500 nM UV-exposed A*03:01/photoKK9 with equimolar ERp57-Tsn^WT against none [6]: 10.9 fold
fold increase of the peptide exchange rate (observed Kon of FITC-RL9, fluorescence polarisation) of 500 nM UV-exposed B*27:05/photoRL9 with equimolar ERp57-Tsn^WT against none [7]: 5.83 fold
fold increase of the peptide exchange rate (observed Kon of FITC-RL9, fluorescence polarisation) of 500 nM UV-exposed B*27:09/photoRL9 with equimolar ERp57-Tsn^WT against none [8]: 3.83 fold

Substance: TAPBPR (TAP-binding protein-related protein) (from UniProt Q9BX59 19-405) (natural protein)
fold increase of the peptide exchange rate (observed Kon of FITC-GV9, fluorescence polarisation) of 500 nM UV-exposed A*02:01/photoKV9 with equimolar TAPBPR against none [9]: 30.9 fold
fold increase of the peptide exchange rate (observed Kon of FITC-KK9, fluorescence polarisation) of 500 nM UV-exposed A*03:01/photoKK9 with equimolar TAPBPR against none [10]: 34.3 fold
fold increase of the peptide exchange rate (observed Kon of FITC-RL9, fluorescence polarisation) of 500 nM UV-exposed B*27:05/photoRL9 with equimolar TAPBPR against none [11]: 1.48 fold
fold increase of the peptide exchange rate (observed Kon of FITC-RL9, fluorescence polarisation) of 500 nM UV-exposed B*27:09/photoRL9 with equimolar TAPBPR against none [12]: 3.13 fold

The remaining lines, values ahead:

relative catalytic activity in peptide exchange, (Kon mutant - Kon noTsn)/(Kon WT - Kon noTsn); UV-exposed A*03:01/photoKK9, FITC-KK9 [1]: 0.77 of WT
relative catalytic activity in peptide exchange, (Kon mutant - Kon noTsn)/(Kon WT - Kon noTsn); UV-exposed B*27:05/photoRL9, FITC-RL9 [2]: 0.86 of WT
relative catalytic activity in peptide exchange, (Kon mutant - Kon noTsn)/(Kon WT - Kon noTsn); UV-exposed B*27:09/photoRL9, FITC-IF9 [3]: 0.95 of WT
relative catalytic activity in peptide exchange; UV-exposed A*03:01/photoKK9, FITC-KK9 (second printing, other number) [4]: 0.73 of WT
Substance: ERp57-Tsn^K16G (from UniProt O15533 21-398; P30101 25-504) (complex)

relative catalytic activity in peptide exchange, (Kon mutant - Kon noTsn)/(Kon WT - Kon noTsn); UV-exposed A*03:01/photoKK9, FITC-KK9 [1]: 0.36 of WT
relative catalytic activity in peptide exchange, (Kon mutant - Kon noTsn)/(Kon WT - Kon noTsn); UV-exposed B*27:05/photoRL9, FITC-RL9 [2]: 0.05 of WT
relative catalytic activity in peptide exchange, (Kon mutant - Kon noTsn)/(Kon WT - Kon noTsn); UV-exposed B*27:09/photoRL9, FITC-IF9 [3]: 0.04 of WT
Substance: ERp57-Tsn^L18G (from UniProt O15533 21-398; P30101 25-504) (complex)

relative catalytic activity in peptide exchange against ERp57-Tsn^WT; UV-exposed A*03:01/photoKK9, FITC-KK9 [13]: 0.93 of WT
relative catalytic activity in peptide exchange against ERp57-Tsn^WT; UV-exposed B*27:09/photoRL9, FITC-IF9 [14]: 1.26 of WT
Substance: ERp57-Tsn^K16L (from UniProt O15533 21-398; P30101 25-504) (complex)
